The values below come from the RNAGym collection of RNA variant scans (doi:10.1073/pnas.2313332121).

B1: TPR t1 (parent)
chain: GACCAAUCUGCCCUCAGAGCUCGAGAACAUCUUCGGAUGCAGAGGAGGCAGGCUUCGGUGGCGCGAUAGCGCCAACGUCCUCAACCUCCAAUGCAUCCCACCACAUGAUGAUGCCUGAAGAGCCUUGGUUUUUUG

In this data set the parent is B1. Put plainly: polymerase ribozyme fitness, log enrichment relative to wild type (log ratio); higher = more active; in vitro selection for triplet polymerase activity. The method, boiled down:
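A single round of triplicate in vitro selection, including frozen incubation at −7 °C, was applied to PCR-built, transcribed mutant libraries of each subunit of a heterodimeric triplet polymerase ribozyme. Illumina sequencing of input and output libraries retained genotypes with ≥10 input reads and ≥1 read per output. Fitness is the base-2 logarithm of genotype enrichment divided by wild-type enrichment, from inverse-variance-weighted replicate averages.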
Consider GACCAAUCUGCCCUCAGAGCUCGAGAACAUCUUCGGAUGCAGAGGAGGCAGGCUUCGGUGGCGCGAUAGCGCCAACGUCCUCAACCUCAAAUGUAUCCCACCACAUGAUGAUGCCAGAAGAGCCUUGGUUUUUUG [C89A C94U U116A], for which the “polymerase ribozyme fitness (log ratio)” value is -5.8.

As to GACCAAUCUGCCCGUAGAGGUCGAGAACAUCUUCGGAUGCAGAGGAGGCAGGCUUCGGUGGCGCGAUAGUGCCAACGUCCUCAACCUCCAAUGCAUCCCACCACAUGAUGAUGCCUGAAGAGACUUGGUUUUUUG [U14G C15U C20G C70U C123A], the “polymerase ribozyme fitness (log ratio)” value was -5.25.

As for GACCAAUCUGCCCUCAGAGCUCGAGAACGUCUUCGGAUGCAGAGGAGGCAGGCUUCGGUGGCGCGAUAGCGCCAACGUCCUCAACCUCCAAUGCAUCCCACCACAUGAUGAUGCCUGAAGAGGCUUGGUUUUUUG [A29G C123G], the “polymerase ribozyme fitness (log ratio)” value came to 0.246.

Turning to GACCACUCUGCCCUAAGAGCUCGAGAACAUCUGCGGAUGCAGAGGAGGCAGGCUUCGGUGGCGCGAUAGCGCCAACGUCCUCAACCUCCAAUGCAUCCCACCACAUGAUGAUGCCUGAAGAGCGUUGGUUUUUUG [A6C C15A U33G C124G], the “polymerase ribozyme fitness (log ratio)” value is -5.85.

Regarding GACCAAUCUGCCCUCAGAGCUCGAGAACAUCUUCGGAUGCAGAGGUGGCAGGCUUCGGUGGCGCGGUAGCGCCAACGUCCUCAACCUCCAAUGCAUCCCACCACAUGAUGAUGCCUGAAGAGACUUGGUUUUUUG [A46U A66G C123A], the “polymerase ribozyme fitness (log ratio)” value was -2.03.

As to GACCAAUCUACCCUCAGAGCUCGAGAACAUCUUCGGAUGCCGAGGAGGCAGUCUUCGGUGGCGCGAUAGCGCCAACGUUCUGAACCUCCAAUGCAUCCCACCACAUGAUGAUGCCUGAAGAGCCUUGGUGUUUUG [G10A A41C G52U C79U C82G U130G], the “polymerase ribozyme fitness (log ratio)” value is -2.72.

Turning to GACCAAUCUGCCUUCAGAGAUCGAGAGCAUCUUCGGAUACAGAGGAGGCAGGCUUCGGUAGCGCGAUAGCGCCAACGUCCUCAACCUCCAAUGCAUCCCACCACAUGAUGAUGCAUGAAGAGCCUUGGUUUUUUG [C13U C20A A27G G39A G60A C115A], the “polymerase ribozyme fitness (log ratio)” value is -5.26.

With GACCAAUCGGCCCUCAGAGCUCGAGAACAUAUUCGGAUGCAGAGGCGGCAGGCUUCGGUGGCGCGAUAGCACCAACGUCCUCAACCUCCAAUGCAUCCCACCACAUGAUAAUGCCUGAAGAGCCUUGGUUUUUUG [U9G C31A A46C G71A G110A], the “polymerase ribozyme fitness (log ratio)” value was -6.51.

Turning to GACCAAUCUGCCCUCAAAGCUAGAGAACAUCUUCGGAUGCAGAGGAGGCAGGCUUCGGUGGCGCGAUAGCGCCAACGUCCUCAACCUCCAAUGCAUCCCACCACAUGAUGAUGCCUGAAGAGCCUUGGUUUUUUG [G17A C22A], the “polymerase ribozyme fitness (log ratio)” value is -5.66.

For the variant GACCAAUCUGCCCUCAGAGCUCGAGAACAUCUUCGGAUGCAGAAGAGGCAGGCUUCGGUGGCGCGAUAGCGCCAACGUCCUCAACCUCCAAUGCAUCCCAGCACAUGAUGAUGCCUGAAGAGCCUUGGUUUUCUG [G44A C101G U133C], the “polymerase ribozyme fitness (log ratio)” value was -2.92.

For GACCAAUCUGCCCUCAGAACUCGAGAACAUCUUCGGAUGCAGUGGAGGCAGGUUUAGGUGGCGCGAUAGCCCCAACGUCCUCAACCUCCAAUGCAUCCCACCACAUGAUGAUGCCUGAAGAGCCUUGGUUUUUUG [G19A A43U C53U C56A G71C], the “polymerase ribozyme fitness (log ratio)” value was -5.18.

As to GACCAAUCUGCCCUCAGAGCUCGAGAACAUCUUCGGAUGCAGAGGAGGCAGGCUUCGGUGGCGCGAUAGCGCCAACGUCCUCAACCUCCAAUGCAUCCCACCACAUGAUGAUGCCUAAAGAGCCUUGGUUUUGUG [G117A U133G], the “polymerase ribozyme fitness (log ratio)” value was -0.981.

Turning to GACCAAUCUGCCAUCAGAGCUCGAGAACAUCUUCGGAUGCAGAGGAGGCAGGCUCCGAUGGCACGAUAGCGCCAACGUCCUCAACCUCCAAUGCAUCCCACCACAUGAUGAUGCCUGAAGAGCCUUGGUUUUUUG [C13A U55C G58A G63A], the “polymerase ribozyme fitness (log ratio)” value was -3.2.

As for GACCAAUCUGCCCUCAGAGCUCGAGAACAUCUUCGGAUGCAGAGGCGGCAGGCUACGGUGGCCCGAUAGCGCCAACGUCCUCAACCUCCAAUGCAUCCCACCACAUGAUGAUGCCUGAAGAGCCUUGGUUUUUUG [A46C U55A G63C], the “polymerase ribozyme fitness (log ratio)” value is -0.439.

Take GACCAAUCUACCCUCAGAGCUCGAGAACAUCUUCGGAUGCAGAGGAGGCAGGAUUCGGUGGCGCGAUAGCGUCAACGUCCUCAACCUCCAAUGCAUCCCACCACAUGAUGAUGCCUGAAGAGCCUUGGUUUUUUG [G10A C53A C72U]: the “polymerase ribozyme fitness (log ratio)” value is 0.298.

For the variant GACCAAUCUGCCCUCAGAGCUCGAGAACAUCUUCGGAUGCAGAGGAGGCAGGCUUCGGUGGUGCGAUAGCGCCAACGUCCUCAACGUCCAAUGCAUCCCACCACAUGAUGAUGCCUGAAGAGCCUUGGUUUUUUG [C62U C86G], the “polymerase ribozyme fitness (log ratio)” value is -0.606.

Take GACCAAUCUGCCCUCAGAGCUCGAGAACAUCUUCGGAUGCAGAAGAGGCAGGCUUCGGUGGCGCGUUAGCGCCAAAGUCCUCAACCUCCAAUGCAUCCCACCACAUGAUGAUGCCUGAAGAGCCUUGGUUUUUUG [G44A A66U C76A]: the “polymerase ribozyme fitness (log ratio)” value was -4.64.

Take GACCAAUCUGCCUUCAGAGCUCGAGAACAUCUUCGGAUGCGGAGGAGGCAGGCUUCGGUAGCGCGAUAGCGCCAACGUCCUCAACCUCCAAUGUAUCCCACCACAUGAUGAUGCUUGAAGAGCCUUGGUUUUUUG [C13U A41G G60A C94U C115U]: the “polymerase ribozyme fitness (log ratio)” value is -1.95.

For the variant GACCAAUCUGCCCUCAGAGCUCGAGAACAUCUUCGGAUGCAGAGGAGGCAGGCUUCGGUGGCGCGAUAGCGUCAACGUCCUCAACCUCCAAUGCAUCCCACAACAUGAUGAUGCCUGAAGAGGCUUGGUUUUUUG [C72U C102A C123G], the “polymerase ribozyme fitness (log ratio)” value was -0.477.

As for GACCAAUCUGCGCUCAGAGCUCGAGAACUUCUUCGGAUGCAGAGGAGGCAGGCUGCGGUGGUGCGAUAGCGCCAACGUCCUCAACCUCCAAUGCAUCCCACUACAUGAUGAUGCCUAAAGAGCCUUGGUUUUUUG [C12G A29U U55G C62U C102U G117A], the “polymerase ribozyme fitness (log ratio)” value was -4.8.

Consider GACCAAUCGGCCCUCAGAGCUCGAGAACAUCUUCGGAUGCAGAGGAGGCAGGCUUCGGUGGCGCGAUAGCGCCAACGUCCUCAACCUCCAAUGCAUCCCACCACAUGAUGAUCCCUGAAGAGCCUUGGUUUUUUG [U9G G113C], for which the “polymerase ribozyme fitness (log ratio)” value was -1.34.
